Experimental findings from patent publication US20240190950A1, “METHOD OF TREATING DISEASES USING GREMLIN1 ANTAGONISTS” (SHANGHAI JIAO TONG UNIVERSITY, priority 2021, published 2024) are described below.

The subject of assay [1] is FGFR1/MEK/ERK signaling pathway. The experiment in a line: FGFR1/MEK/ERK phosphorylation in PCa cell lines (immunoblotting). The assay is classed as cell-based, human. As to the method: In order to test whether Gremlin1 promoted the FGFR-MAPK signaling, we first performed analysis of the expression levels of the four FGFRs in CRPC patients. […] We treated LNCaP and PC3 with GREM1 in different concentrations (1 ng/ml, 10 ng/ml, 100 ng/ml) and examined phosphorylation levels of FGFR1, MEK and ERK.
(§1) MAPK signaling can be activated through many membrane receptors besides FGFR. To test whether the activation of MAPK pathway by GREM1 was via FGFR, we constructed a FGFR1 knockout LNCaP subline by the CRISPR/Cas9 method. […] To further test whether the tumor promoting effect of GREM1 was through FGFR, we utilized small molecule inhibitors of FGFR or EGFR.
14E3 was tested to target GREM1 in human PCa.
In general terms: A western blot detects proteins with antibodies after separation by electrophoresis.

For the next assay, the system named is LNCaP cells. The experiment in a line: GREM1-promoted PCa cell proliferation and sphere formation with FGFR1/MEK inhibitors or BMP4. Type of assay: cell-based, human.
Excerpt: as §1

The target of another assay is FGFR1 (Homo sapiens, UniProt P11362). The experiment in a line: ELISA binding of DAN family proteins to FGFR1.
Chain of FGFR1 (P11362 3-822 limits assumed): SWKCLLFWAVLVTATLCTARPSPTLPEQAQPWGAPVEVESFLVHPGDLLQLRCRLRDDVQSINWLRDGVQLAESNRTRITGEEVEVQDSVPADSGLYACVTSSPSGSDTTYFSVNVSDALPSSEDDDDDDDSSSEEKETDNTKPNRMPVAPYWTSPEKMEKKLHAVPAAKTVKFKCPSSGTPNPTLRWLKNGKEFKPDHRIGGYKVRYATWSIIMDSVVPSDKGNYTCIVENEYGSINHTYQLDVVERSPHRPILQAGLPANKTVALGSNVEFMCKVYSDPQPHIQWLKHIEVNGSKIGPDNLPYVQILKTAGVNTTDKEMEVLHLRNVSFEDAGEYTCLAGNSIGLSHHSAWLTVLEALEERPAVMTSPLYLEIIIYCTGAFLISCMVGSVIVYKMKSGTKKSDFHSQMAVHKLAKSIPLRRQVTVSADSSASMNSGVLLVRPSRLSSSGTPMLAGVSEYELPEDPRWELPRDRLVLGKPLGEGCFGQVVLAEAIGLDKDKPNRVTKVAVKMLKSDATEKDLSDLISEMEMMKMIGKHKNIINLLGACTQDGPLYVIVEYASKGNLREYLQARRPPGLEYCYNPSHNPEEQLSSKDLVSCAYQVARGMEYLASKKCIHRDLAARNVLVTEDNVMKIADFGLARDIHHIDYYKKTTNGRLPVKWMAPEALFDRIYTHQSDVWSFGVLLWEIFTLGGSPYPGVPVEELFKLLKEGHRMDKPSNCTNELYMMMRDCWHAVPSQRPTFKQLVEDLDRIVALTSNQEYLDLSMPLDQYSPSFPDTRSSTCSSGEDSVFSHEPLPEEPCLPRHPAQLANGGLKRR
The test system of another assay is PC3 cells. The experiment in a line: Sphere formation, proliferation and apoptosis of PC3 cells. Type of assay: cell-based, human. The conditions noted are these: 100 ng/ml GREM1 protein in culture medium. The text has this:
Metastatic prostate cancer is a devastating disease and most cancers progress upon serial treatments with either androgen receptor antagonist or chemotherapy. One of the key cell types resistant to these treatments are cells with stem cells like property which has the capability of forming tumor spheres in suspension culture. To explore the role of GREM1 in the progression of CRPC, we utilized AR independent CRPC cell line PC3, as well as the AR dependent PCa cell line LNCaP and LAPC4. We generated cell sublines with loss or gain of GREM1 expression (FIGS. 3A, 4A and 5A).
14E3 was tested to target GREM1 in human PCa. The affinity and specificity of this antibody to hGREM1 was verified by ELISA (FIG. 12A). […] This antibody potentiated the anti-tumor effect of Enzalutamide in AR dependent LNCaP cells (FIG. 12B, 12C, 10K, 10L).

A further assay relates to PC-3 cells. In words: Scratch migration assay of PC-3 cells. Type of assay: cell-based, human. The conditions noted are these: 1 μg/ml Gremlin, 3 days. As for the experimental part:
PC-3 cells at log-growth phase were harvested and re-suspended in cell culture medium (DMEM medium supplied with 10% FBS). Cells were non-treated or treated with 1 μg/ml Gremlin or 10 μg/ml 14E3 or 10 μg/ml control mIgG2a for 3 days. Then cells were planted at 10^5 cells/well in 6-well cell culture plate. After cells reached 100% coverage of the bottom of wells, the medium was changed to serum free medium. Each well was made with one scratch using 200 μl-tip. The migration rate of cells were analyzed by calculating the area of cells growing on the scratch using Image J software.

The test system of a further assay is LNCaP-PSA cells. The experiment in a line: LNCaP-PSA reporter cell assay (PSA-low population, flow cytometry). Type of assay: cell-based, human. The conditions noted are these: dose dependent; day 7. The text has this:
In order to assess the role of gremlin1 in modulating tumor prostate cell growth, we tested the antibodies provided herein in an assay involving prostate cancer cell LNCaP. This cell line was transfected with a PSA promoter driven GFP expression lentivirus plasmid. PSA is known as a differentiated marker of prostate cell and prostate cancer cells with low level of PSA represent poorly differentiated or undifferentiated prostate cancer cells. These cells usually have stem cell like property and have more aggressive growth property. The LNCaP reporter cell assay is briefly described below.
LNCaP-PSA cells were plated in 24-well plates at 10000/well in RPMI 1640/10% FBS (GIBCO), 1% P/S (complete media) and incubated at 37° ° C. and 5% CO2 overnight. The next day, remove media, 1 ug/ml human gremlin (ACRO) or human gremlin with serially diluted antibodies were added to the cells. Change medium every three days. On day 7, remove media from the wells, wash with PBS twice, run flow cytometer (Bechman) using FITC channel.
On the technique in general: Flow cytometry measures light scatter and fluorescence of single cells or particles in a stream.

B1: BMP4: BMP ligand added to cells (protein, UniProt P12644 293-408, looked up)
Bone morphogenetic protein 4: SPKHHSQRARKKNKNCRRHSLYVDFSDVGWNDWIVAPPGYQAFYCHGDCPFPLADHLNSTNHAIVQTLVNSVNSSIPKACCVPTELSAISMLYLDEYDKVVLKNYQEMVVEGCGCR
With B1, the “phosphorylation levels of FGFR1, MEK1/2 and ERK1/2 following GREM1 stimulation on addition of BMP4” value in assay [1] (BMP4 20 ng/ml, PC3 and LNCaP-resistance cells) is listed as “did not alter”. Also, in the assay with LNCaP cells, the “proliferation promoting role of GREM1” value was “not affected” and the “sphere-formation promoting role of GREM1” value is given as “not affected”.

B2: GREM1: gremlin1 protein, secreted BMP antagonist of the DAN family, added exogenously or immobilized (protein)
chain: KKKGSQGAIPPPDKAQHNDSEQTQSPQQPGSRNRGRGQGRGTAMPGEEVLESSQEALHVTERKYLKRDWCKTQPLKQTIHEEGCNSRTIINRFCYGQCNSFYIPRHIRKEEGSFQSCSFCKPKKFTTMMVTLNCPELQPPTKKKRVTRVKQCRCISIDLD
As for B2, the “binding to FGFR1” value in the assay with FGFR1 is on record as “binds”. Moreover, in the assay with PC3 cells, the cell proliferation entry is listed as “significant elevation” and the sphere formation result was “significant elevation”. Also, in assay [1] (Gremlin1 100 ng/ml, PC3 and LNCaP cells), the “time MAPK activation was maintained at a high level” value is “up to 1 hour”. Besides, the “p-FGFR1, p-MEK1/2 and p-ERK1/2 levels” value in assay [1] (LNCaP and PC3, 1 ng/ml, 10 ng/ml, 100 ng/ml, dose dependent) is given as “increase”. The “cell migration of prostate cancer cells” value in the assay on PC-3 cells is “accelerated”. In the assay with LNCaP-PSA cells, the “percentage of the PSA-low LNCaP population” value was “increased”.
